The record followed here is patent US20140087995A1 (published 2014).

Test [1] addresses T1, human calcitonin receptor (human, UniProt P30988 25-474).
T1 construct: whole, on cells; also called hCTR; hCT
T1 sequence (looked up): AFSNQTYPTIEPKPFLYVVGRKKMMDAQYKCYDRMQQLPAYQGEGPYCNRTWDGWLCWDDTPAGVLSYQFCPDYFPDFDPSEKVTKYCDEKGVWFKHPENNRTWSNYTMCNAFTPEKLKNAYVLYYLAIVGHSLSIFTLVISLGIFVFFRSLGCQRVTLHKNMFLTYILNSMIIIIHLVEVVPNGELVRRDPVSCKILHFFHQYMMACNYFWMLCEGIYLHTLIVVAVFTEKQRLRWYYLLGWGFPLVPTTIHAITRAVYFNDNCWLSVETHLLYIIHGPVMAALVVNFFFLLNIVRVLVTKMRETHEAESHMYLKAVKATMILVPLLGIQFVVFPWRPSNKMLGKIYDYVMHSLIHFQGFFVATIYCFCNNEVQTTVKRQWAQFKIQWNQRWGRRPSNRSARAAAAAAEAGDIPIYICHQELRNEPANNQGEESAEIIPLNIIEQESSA
As to the kind of experiment: SPA competition with 125I-calcitonin, membranes of BHK hCTR cells (Assay VII). In a few lines:
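BHK hCTR membranes 35 ng/μL + SPA beads 0.05 mg/well; buffer 50 mM Hepes pH 7.4, 1 mM CaCl2, 5 mM MgCl₂, 0.1% OA, 0.02% Tween20. 120 min, 25° C., shaking. Scintillation count; IC50 by one-site binding competition.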

In test [2] the target is T2, human calcitonin receptor (human, UniProt P30988 25-474).
T2 construct: whole, on cells; also called hCTR; hCT
T2 sequence (looked up): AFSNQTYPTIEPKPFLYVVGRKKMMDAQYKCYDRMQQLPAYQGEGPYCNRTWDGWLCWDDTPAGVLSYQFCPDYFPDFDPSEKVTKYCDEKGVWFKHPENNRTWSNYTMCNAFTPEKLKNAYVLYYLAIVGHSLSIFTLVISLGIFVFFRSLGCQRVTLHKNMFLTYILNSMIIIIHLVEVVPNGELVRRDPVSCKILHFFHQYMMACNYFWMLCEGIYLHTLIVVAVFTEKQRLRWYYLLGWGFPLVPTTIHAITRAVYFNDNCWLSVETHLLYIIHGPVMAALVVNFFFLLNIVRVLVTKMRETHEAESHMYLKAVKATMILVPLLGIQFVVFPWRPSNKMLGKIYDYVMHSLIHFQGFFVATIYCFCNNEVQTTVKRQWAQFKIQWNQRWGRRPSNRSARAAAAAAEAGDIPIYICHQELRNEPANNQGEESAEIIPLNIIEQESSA
As to the kind of experiment: ratio of IC50 at hCTR to IC50 at the human amylin receptor (reference). Here is the method: The resulting pellet was resuspended, homogenized and centrifuged (20.000 rpm, 15 min) in a buffer containing 20 mM Na-HEPES and 0.1 mM EDTA (pH 7.4, buffer 2). The resulting pellet was resuspended in buffer 2 and protein concentration was measured (BCA protein Assay, Pierce). The homogenate was kept cold during the whole procedure. The membranes were kept at −80° C. until use. The assay was performed in a 384 well Optiplate (PerkinElmer) in a total volume of 40 ul. Membranes were mixed with SPA beads. Final concentration of membranes 35 ng/μL final and SPA beads was 0.05 mg/well. Test-compounds were dissolved in DMSO and further diluted in assay buffer (50 mM Hepes, pH 7.4, 1 mM CaCl2, 5 mM MgCl₂, 0.1% OA and 0.02% Tween20). […] The final mixture was incubated with shaking at 400 rpm for 120 min at 25° C. prior to centrifugation (1500 rpm, 10 min). Samples were analyzed on TopCounter™ (Packard). The IC₅₀ was calculated using (one site binding competition analysis) GraphPad Prism5 as a measure of receptor affinity.
Membranes were prepared in the following way; the cells were rinsed with PBS and incubated with Versene for approximately 5 min before harvesting. The cells were flushed with PBS and the cell-suspension was centrifuged for 5 min at 1000 rpm. Cells were homogenized (Ultrathurrax) in a buffer containing 20 mM Na-HEPES and 10 mM EDTA (pH 7.4) and centrifuged at 20.000 rpm for 15 min. The resulting pellet was resuspended, homogenized and centrifuged (20.000 rpm, 15 min) in a buffer containing 20 mM Na-HEPES and 0.1 mM EDTA (pH 7.4, buffer 2). The resulting pellet was resuspended in buffer 2 and protein concentration was measured (BCA protein Assay, Pierce). The homogenate was kept cold during the whole procedure. The membranes were kept at −80° C. until use. Assay was performed in a 384 well Optiplate (PerkinElmer) in a total volume of 40 ul. Membranes were mixed with SPA beads.

The target of test [3] is T2, human calcitonin receptor. As to the kind of experiment: SPA competition binding, membranes with human calcitonin receptor, displacement of 125I-calcitonin (Assay VII). Here is the method:
Membranes were prepared in the following way; the cells were rinsed with PBS and incubated with Versene for approximately 5 min before harvesting. The cells were flushed with PBS and the cell-suspension was centrifuged for 5 min at 1000 rpm. Cells were homogenized (Ultrathurrax) in a buffer containing 20 mM Na-HEPES and 10 mM EDTA (pH 7.4) and centrifuged at 20.000 rpm for 15 min. The resulting pellet was resuspended, homogenized and centrifuged (20.000 rpm, 15 min) in a buffer containing 20 mM Na-HEPES and 0.1 mM EDTA (pH 7.4, buffer 2). The resulting pellet was resuspended in buffer 2 and protein concentration was measured (BCA protein Assay, Pierce). The homogenate was kept cold during the whole procedure. The membranes were kept at −80° C. until use. Assay was performed in a 384 well Optiplate (PerkinElmer) in a total volume of 40 ul. Membranes were mixed with SPA beads. Final concentration of membranes 35 ng/μL final and Final concentration of SPA beads was 0.05 mg/well. Test-compounds were dissolved in DMSO and further diluted in assay buffer (50 mM Hepes, pH 7.4, 1 mM CaCl2, 5 mM MgCl₂, 0.1% OA and 0.02% Tween20). […] The final mixture was incubated for 120 min with shaking at 400 rpm at 25° C. prior to centrifugation (1500 rpm, 10 min). Samples were analyzed on TopCounter™ (Packard). The […] was calculated using (one site binding competition analysis) GraphPad Prism5 as a measure of receptor affinity.
(In general: Loss of bound radioactivity is the signal in a displacement assay; it reports binding, not function.)

As usually defined, the IC50 is the concentration at which inhibition is half-maximal.

Numbered stars: 1 amine (or outer) side, 2 acyl side, 3 side chain; on linkers, the order of the positions; unused ones are H or OH. Bridge positions count the residues as written; N and C are the ends. Side chains are listed from the residue outwards. Ends that are not written are not given here. * marks the point of attachment. C20 diacid = O=C(O)CCCCCCCCCCCCCCCCCCC(=O)*; γGlu = O=C(O)[C@H](CCC(=O)[*:2])N[*:1]; AEEA = NCCOCCOCC(=O)O

B1: N^ε1-[(4S)-4-carboxy-4-(19-carboxynonadecanoylamino)butanoyl]-[Arg17,Pro21,Pro27]-h-amylin (peptide)
peptide: K([γGlu-C20 diacid])CNTATCATQRLANFLRHSSPNFGAIPSSTNVGSNTY-NH2
modifications: disulfide 2-7; N-terminus assumed
SMILES: CC[C@H](C)[C@H](NC(=O)[C@H](C)NC(=O)CNC(=O)[C@H](Cc1ccccc1)NC(=O)[C@H](CC(N)=O)NC(=O)[C@@H]1CCCN1C(=O)[C@H](CO)NC(=O)[C@H](CO)NC(=O)[C@H](Cc1c[nH]cn1)NC(=O)[C@H](CCCNC(=N)N)NC(=O)[C@H](CC(C)C)NC(=O)[C@H](Cc1ccccc1)NC(=O)[C@H](CC(N)=O)NC(=O)[C@H](C)NC(=O)[C@H](CC(C)C)NC(=O)[C@H](CCCNC(=N)N)NC(=O)[C@H](CCC(N)=O)NC(=O)[C@@H](NC(=O)[C@H](C)NC(=O)[C@@H]1CSSC[C@H](NC(=O)[C@@H](N)CCCCNC(=O)CC[C@H](NC(=O)CCCCCCCCCCCCCCCCCCC(=O)O)C(=O)O)C(=O)N[C@@H](CC(N)=O)C(=O)N[C@@H]([C@@H](C)O)C(=O)N[C@@H](C)C(=O)N[C@@H]([C@@H](C)O)C(=O)N1)[C@@H](C)O)C(=O)N1CCC[C@H]1C(=O)N[C@@H](CO)C(=O)N[C@@H](CO)C(=O)N[C@H](C(=O)N[C@@H](CC(N)=O)C(=O)N[C@H](C(=O)NCC(=O)N[C@@H](CO)C(=O)N[C@@H](CC(N)=O)C(=O)N[C@H](C(=O)N[C@@H](Cc1ccc(O)cc1)C(N)=O)[C@@H](C)O)C(C)C)[C@@H](C)O
notes: also called compound 48
As to B1, the IC50 in test [1] stood at 30.9 nM.

B2: N^-1-[(4S)-4-carboxy-4-(19-carboxynonadecanoylamino)butanoyl]-Gly[Arg1,Arg17,Pro21,Pro27,His35]-h-amylin (peptide)
peptide: {C20 diacid-γGlu}-GRCNTATCATQRLANFLRHSSPNFGAIPSSTNVGSHTY-NH2
modifications: disulfide 3-8
SMILES: CC[C@H](C)[C@H](NC(=O)[C@H](C)NC(=O)CNC(=O)[C@H](Cc1ccccc1)NC(=O)[C@H](CC(N)=O)NC(=O)[C@@H]1CCCN1C(=O)[C@H](CO)NC(=O)[C@H](CO)NC(=O)[C@H](Cc1c[nH]cn1)NC(=O)[C@H](CCCNC(=N)N)NC(=O)[C@H](CC(C)C)NC(=O)[C@H](Cc1ccccc1)NC(=O)[C@H](CC(N)=O)NC(=O)[C@H](C)NC(=O)[C@H](CC(C)C)NC(=O)[C@H](CCCNC(=N)N)NC(=O)[C@H](CCC(N)=O)NC(=O)[C@@H](NC(=O)[C@H](C)NC(=O)[C@@H]1CSSC[C@H](NC(=O)[C@H](CCCNC(=N)N)NC(=O)CNC(=O)CC[C@H](NC(=O)CCCCCCCCCCCCCCCCCCC(=O)O)C(=O)O)C(=O)N[C@@H](CC(N)=O)C(=O)N[C@@H]([C@@H](C)O)C(=O)N[C@@H](C)C(=O)N[C@@H]([C@@H](C)O)C(=O)N1)[C@@H](C)O)C(=O)N1CCC[C@H]1C(=O)N[C@@H](CO)C(=O)N[C@@H](CO)C(=O)N[C@H](C(=O)N[C@@H](CC(N)=O)C(=O)N[C@H](C(=O)NCC(=O)N[C@@H](CO)C(=O)N[C@@H](Cc1c[nH]cn1)C(=O)N[C@H](C(=O)N[C@@H](Cc1ccc(O)cc1)C(N)=O)[C@@H](C)O)C(C)C)[C@@H](C)O
notes: also called compound 47
Regarding B2, the IC50 in test [1] was 15.5 nM.

B3: N^-1-[(4S)-4-carboxy-4-(19-carboxynonadecanoylamino)butanoyl]-Gly[Arg1,Arg17,Pro21,Pro27]-h-amylin (peptide)
peptide: {C20 diacid-γGlu}-GRCNTATCATQRLANFLRHSSPNFGAIPSSTNVGSNTY-NH2
modifications: disulfide 3-8
SMILES: CC[C@H](C)[C@H](NC(=O)[C@H](C)NC(=O)CNC(=O)[C@H](Cc1ccccc1)NC(=O)[C@H](CC(N)=O)NC(=O)[C@@H]1CCCN1C(=O)[C@H](CO)NC(=O)[C@H](CO)NC(=O)[C@H](Cc1c[nH]cn1)NC(=O)[C@H](CCCNC(=N)N)NC(=O)[C@H](CC(C)C)NC(=O)[C@H](Cc1ccccc1)NC(=O)[C@H](CC(N)=O)NC(=O)[C@H](C)NC(=O)[C@H](CC(C)C)NC(=O)[C@H](CCCNC(=N)N)NC(=O)[C@H](CCC(N)=O)NC(=O)[C@@H](NC(=O)[C@H](C)NC(=O)[C@@H]1CSSC[C@H](NC(=O)[C@H](CCCNC(=N)N)NC(=O)CNC(=O)CC[C@H](NC(=O)CCCCCCCCCCCCCCCCCCC(=O)O)C(=O)O)C(=O)N[C@@H](CC(N)=O)C(=O)N[C@@H]([C@@H](C)O)C(=O)N[C@@H](C)C(=O)N[C@@H]([C@@H](C)O)C(=O)N1)[C@@H](C)O)C(=O)N1CCC[C@H]1C(=O)N[C@@H](CO)C(=O)N[C@@H](CO)C(=O)N[C@H](C(=O)N[C@@H](CC(N)=O)C(=O)N[C@H](C(=O)NCC(=O)N[C@@H](CO)C(=O)N[C@@H](CC(N)=O)C(=O)N[C@H](C(=O)N[C@@H](Cc1ccc(O)cc1)C(N)=O)[C@@H](C)O)C(C)C)[C@@H](C)O
notes: also called compound 46
Take B3: the IC50 in test [1] amounted to 9.53 nM.

B4: N^ε-[2-[2-[2-[[(4S)-4-carboxy-4-(19-carboxynonadecanoylamino)butanoyl]amino]ethoxy]ethoxy]acetyl]Lys[Arg1,Arg17,Pro21,Pro27,His35]-h-amylin (peptide)
peptide: K([AEEA-γGlu-C20 diacid])RCNTATCATQRLANFLRHSSPNFGAIPSSTNVGSHTY-NH2
modifications: disulfide 3-8; N-terminus assumed
SMILES: CC[C@H](C)[C@H](NC(=O)[C@H](C)NC(=O)CNC(=O)[C@H](Cc1ccccc1)NC(=O)[C@H](CC(N)=O)NC(=O)[C@@H]1CCCN1C(=O)[C@H](CO)NC(=O)[C@H](CO)NC(=O)[C@H](Cc1c[nH]cn1)NC(=O)[C@H](CCCNC(=N)N)NC(=O)[C@H](CC(C)C)NC(=O)[C@H](Cc1ccccc1)NC(=O)[C@H](CC(N)=O)NC(=O)[C@H](C)NC(=O)[C@H](CC(C)C)NC(=O)[C@H](CCCNC(=N)N)NC(=O)[C@H](CCC(N)=O)NC(=O)[C@@H](NC(=O)[C@H](C)NC(=O)[C@@H]1CSSC[C@H](NC(=O)[C@H](CCCNC(=N)N)NC(=O)[C@@H](N)CCCCNC(=O)COCCOCCNC(=O)CC[C@H](NC(=O)CCCCCCCCCCCCCCCCCCC(=O)O)C(=O)O)C(=O)N[C@@H](CC(N)=O)C(=O)N[C@@H]([C@@H](C)O)C(=O)N[C@@H](C)C(=O)N[C@@H]([C@@H](C)O)C(=O)N1)[C@@H](C)O)C(=O)N1CCC[C@H]1C(=O)N[C@@H](CO)C(=O)N[C@@H](CO)C(=O)N[C@H](C(=O)N[C@@H](CC(N)=O)C(=O)N[C@H](C(=O)NCC(=O)N[C@@H](CO)C(=O)N[C@@H](Cc1c[nH]cn1)C(=O)N[C@H](C(=O)N[C@@H](Cc1ccc(O)cc1)C(N)=O)[C@@H](C)O)C(C)C)[C@@H](C)O
notes: also called compound 45
In the case of B4, in test [1], the IC50 was found to be 14.8 nM.

B5: N^α1-[(4S)-4-carboxy-4-(19-carboxynonadecanoylamino)butanoyl]-[Glu14,Arg17,Pro21,Pro27]-h-amylin (peptide)
peptide: KCNTATCATQRLAEFLRHSSPNFGAIPSSTNVGSNTY
modifications: C20 diacid-gGlu on the alpha amino group of the N-terminal residue; disulfide bridge Cys2-Cys7; C-terminal amide
notes: also called compound 9
In the case of B5, the “Ratio hCT/hAmylin binding” value in test [2] turned out to be 8. Besides, in test [3], the IC50 turned out to be 1.14 nM.
